Assay results from patent US7244563B2, “Genes for plant fatty acid modifying enzymes associated with conjugated double bond formation” (E. I. du Pont de Nemours and Company, priority 2002, dated 2007).

What was measured:
[1] = system: Tobacco (Nicotiana tabacum L. cv Xanthi) callus; assay: Fatty acid analysis (GC, GC-MS) of transgenic tobacco callus expressing the cDNA; type: cell-based; conditions: pBI121, 35S promoter, highest amount
Excerpt: The cDNAs encoding fatty acid modifying enzymes associated with conjugated double bond synthesis in seeds of Impatiens balsamina and Momordica charantia were introduced into a plant expression vector designated pML63. Vector pML63 contains the uidA gene (which encodes the GUS enzyme) operably linked to the CaMV35S promoter and 3′ NOS sequence. pML63 is modified from pMH40 to produce a minimal 3′ NOS terminator fragment. pMH 40 is described in WO 98/16650 which was published on Apr. 23, 1998, the disclosure of which are hereby incorporated by reference. Using standard techniques familiar to those skilled in the art, the 770 base pair terminator sequence contained in pMH40 was replaced with a new 3′ NOS terminator sequence comprising nucleotides 1277 to 1556 of the sequence published by Depicker et al. (1982, J. Appl. Genet. 1:561–574). A chimeric gene was constructed comprising cDNAs encoding fatty acid modifying enzymes associated with conjugated double bond synthesis in seeds of Impatiens balsamina and Momordica charantia in sense orientation with respect to the cauliflower mosaic virus 35S promoter that is located 5′ to the cDNA fragment and termination sequences from the nopaline synthase (NOS) that are located 3′ to the cDNA fragment. The cDNAs for the Impatiens polypeptide was introduced in the NcoI and EcoRI sites of the vector pML63. The cDNA for the Momordica polypeptide was introduced into the NcoI and SmaI sites of the vector pML63. The NcoI and EcoRI sites flanking the Impatiens cDNA were generated by PCR amplification of the cDNAs using oligonucleotide primers that contained these restriction sites (SEQ ID NO:7 and SEQ ID NO:8, for the sense and antisense oligonucleotides, respectively). PCR amplification was conducted using the Pfu DNA polymerase. The NcoI site flanking the 5′ end of the Momordica cDNA was generated by PCR amplification in a similar manner (SEQ ID NO:9 and SEQ ID NO:10). The 3′ end of the PCR-generated Momordica cDNA was blunt-ended which allowed for cloning into the SmaI site of the vector pML63. The resulting fusions of the cauliflower mosaic virus 35S promoter with the cDNAs encoding fatty acid modifying enzymes associated with conjugated double bond synthesis in seeds of Impatiens balsamina or Momordica charantia and NOS termination sequences were released from the vector pML63 by digestion with XbaI. The resulting XbaI fragment was ligated into the corresponding site of the binary vector pZS199 The vector pZS199 contains the following elements: (1) the chimeric gene nopaline synthase/neomycin phosphotransferase as a selectable marker for transformed plant cells (Brevan et al. (1984) Nature 304:184–186), (2) the left and right borders of the T-DNA of the Ti plasmid (Brevan et al. (1984) Nucl. Acids Res. 12:8711–8720), (3) the E. coli lacZ-complementing segment (Vieria and Messing (1982) Gene 19:259–267) with unique restriction endonuclease sites for EcoRI, KpnI, BamHI, XbaI and SalI, (4) the bacterial replication origin from the Pseudomonas plasmid pVS1 (Itoh et al. (1984) Plasmid 11:206–220), and (5) the bacterial neomycin phosphotransferase gene from Tn5 (Berg et al. (1975) Proc. Natl. Acad. Sci. U.S.A. 72:3628–3632) as a selectable marker for transformed A. tumefaciens. The nopaline synthase promoter in the plant selectable marker was replaced by the 35S promoter (Odell et al. (1985) Nature, 313:810–813) by a standard restriction endonuclease digestion and ligation strategy.
Gene fusions of the Impatiens balsamina or Momordica charantia cDNAs with the cauliflower mosaic virus 35S promoter and the NOS termination sequences in vector pZS199 were introduced into Agrobacterium tumefaciens strain LBA4404. […]

soybean embryos = assay: Fatty acid composition of transgenic soybean somatic embryos (GC, GC-MS); type: cell-based
Protocol: Gene fusions of the Impatiens balsamina or Momordica charantia cDNAs with the conglycinin promoter and phaseolin termination sequences in vector pKS67 were introduced into soybean embryos using the particle bombardment method of transformation. To induce somatic embryos, cotyledons, 3–5 mm in length dissected from surface sterilized, immature seeds of a soybean cultivar A2872 or JACK-910 were cultured in the light or dark at 26° C. on an appropriate agar medium for 6–10 weeks. Somatic embryos that produce secondary embryos were then excised and placed into a suitable liquid medium. After repeated selection for clusters of somatic embryos that multiplied as early, globular staged embryos, the suspensions were maintained as described below.
Soybean embryogenic suspension cultures were then transformed with the vector pKS67 containing the Impatiens or Momordica cDNA for fatty acid modifying enzymes associated with conjugated double synthesis by the method of particle gun bombardment (Klein et al. (1987) Nature (London) 327:70, U.S. Pat. No. 4,945,050). A DuPont Biolistic™ PDS1000/HE instrument (helium retrofit) was used for these transformations.
Five to seven days post bombardment, the liquid media was exchanged with fresh media, and eleven to twelve days post bombardment with fresh media containing […] hygromycin. This selective media was refreshed weekly. Seven to eight weeks post bombardment, green, transformed tissue was observed growing from untransformed, necrotic embryogenic clusters. Isolated green tissue was removed and inoculated into individual flasks to generate new, clonally propagated, transformed embryogenic suspension cultures. Each new line was treated as an independent transformation event. These suspensions were then subcultured and maintained as clusters of immature embryos.
Transgenic soybean embryos selected and maintained in this manner were analyzed for eleostearic acid and parinaric acid content using methods described in Example 4 (Table 1). Individual embryos expressing either the Impatiens or Momordica fatty acid modifying enzyme for conjugated double bond synthesis were homogenized in 1% (w/v) sodium methoxide in methanol. Fatty acid methyl esters resulting from this transesterification step were analyzed by both GC and GC-MS as described in Example 4. Methyl esters of eleostearic and parinaric acids were identified in transgenic soybean extracts by comparison of retention times and mass spectra with those of fatty acid methyl esters prepared from seeds of Impatiens balsamina and Momordica charantia. […] In soybean embryos expressing the Momordica enzyme, eleostearic acid was detected principally as α-eleostearic acid with lesser amounts of at least two other cis-trans isomers of eleostearic acid. […]

[2] = soybean embryos, six independent transgenic lines (n = 6), ± standard deviation, % of total oil weight

B1: ChrFad2: Chrysobalanus icaco fatty acid modifying enzyme associated with conjugated double bond synthesis, SEQ ID NO:20, cDNA SEQ ID NO:19 (protein)
chain: MGAGGQKTFPRLEEEEKQQQAAAAGFKRIPTTKPPFTLSDLKKAIPPHCFQRSLLRSFSYVFIDLTIISILGYIGATYICLLPPPSKYLAWLLYWAVQGCFFTGAWALAHDCGHHAFSDYQWIDDAVGMVLHSTLMVPYFSFKYSHRRHHSNINSLERDEVFVPRPKSKIKWYCSKYLNNPLGRVLTLAVTLILGWPMYLALNASGRDYDRFVSHFYPYGPIYNDRERLQIYISDAGIFIVSYVLYQVALAKGLPWLICIYGVPLFVNNALVVTITYLQHTHPELPRYGNSEWDWFKGTLATVDRDMGPLLNWATHHVSDTHYVHHLFSTMPHYHGVEATKAVKPMLGEYYRFDPTPLYKALWREAKECLFVEPDSKSPGVFWFDKF
modifications: Chrysobalanus icaco
[1]
  α-eleostearic acid of the total fatty acids of callus samples: ≤ 4.7 wt %
  α-paranaric acid of the total fatty acids of callus samples: ≤ 0.4 wt %
Soybean embryos; soybean embryos, single embryos from six independent transgenic lines (n = 6), ± standard deviation, % of total oil weight
  16:0: 7.0 ± 1.4 Weight %
Soybean embryos; [2]
  18:0: 1.9 ± 0.6 Weight %
  18:1: 37.6 ± 6.2 Weight %
  18:2: 28.1 ± 3.8 Weight %
  18:3: 6.0 ± 2.5 Weight %
  α-Parinaric: 0.9 ± 0.3 Weight %
Soybean embryos; soybean embryos, six independent transgenic lines (n = 6), includes cis-trans isomers of α-eleostearic acid (<1.0 wt %)
  Eleostearic: 16.4 ± 2.4 Weight %
Soybean embryos; soybean embryos, six independent transgenic lines (n = 6), primarily 20:0, 20:1, 22:0, and 22:1
  Other: <2.1 Weight %
Soybean embryos; soybean somatic embryos, β-conglycinin promoter
  α-paranaric acid of the total fatty acids: approximately 1 wt %
Soybean embryos; soybean somatic embryos, β-conglycinin promoter, highest amount
  α-eleostearic acid of the total fatty acids: ≤ 21 wt %
